Substitutions are numbered along the chain they refer to.
B1: LAIR-1 Ig-like domain, wild type (domain or fragment, human, UniProt Q6GTX8 22-122, looked up)
chain: QEEDLPRPSISAEPGTVIPLGSHVTFVCRGPVGVQTFRLERDSRSTYNDTEDVSQASPSESEARFRIDSVREGNAGLYRCIYYKPPKWSEQSDYLELLVKE
notes: Leukocyte associated immunoglobulin-like receptor 1 (LAIR-1; CD305), C2-type Ig-like domain, residues 22 to 122; pET28a construct; intact disulfide bond by ESI-MS; also called LAIR-1 WT; soluble LAIR-1 Ig-like domain
B2: LAIR-1 Ig-like domain E72K (domain or fragment, human, UniProt Q6GTX8 22-122, looked up)
chain: B1 chain with E51K
notes: LAIR-1 (CD305), C2-type Ig-like domain, residues 22 to 122
B3: LAIR-1 Ig-like domain E111K (domain or fragment, human, UniProt Q6GTX8 22-122, looked up)
chain: B1 chain with E90K
notes: as for B2
B4: LAIR-1 Ig-like domain I102L (domain or fragment, human, UniProt Q6GTX8 22-122, looked up)
chain: B1 chain with I81L
notes: as for B2
B5: LAIR-1 Ig-like domain P107R (domain or fragment, human, UniProt Q6GTX8 22-122, looked up)
chain: B1 chain with P86R
notes: as for B2
B6: recombinant C1r2s2 tetramer (C1s, C1rS637A) (complex)
chain 1: SIPIPQKLFGEVTSPLFPKPYPNNFETTTVITVPTGYRVKLVFQQFDLEPSEGCFYDYVKISADKKSLGRFCGQLGSPLGNPPGKKEFMSQGNKMLLTFHTDFSNEENGTIMFYKGFLAYYQAVDLDECASRSKSGEEDPQPQCQHLCHNYVGGYFCSCRPGYELQEDTHSCQAECSSELYTEASGYISSLEYPRSYPPDLRCNYSIRVERGLTLHLKFLEPFDIDDHQQVHCPYDQLQIYANGKNIGEFCGKQRPPDLDTSSNAVDLLFFTDESGDSRGWKLRYTTEIIKCPQPKTLDEFTIIQNLQPQYQFRDYFIATCKQGYQLIEGNQVLHSFTAVCQDDGTWHRAMPRCKIKDCGQPRNLPNGDFRYTTTMGVNTYKARIQYYCHEPYYKMQTRAGSRESEQGVYTCTAQGIWKNEQKGEKIPRCLPVCGKPVNPVEQRQRIIGGQKAKMGNFPWQVFTNIHGRGGGALLGDRWILTAAHTLYPKEHEAQSNASLDVFLGHTNVEELMKLGNHPIRRVSVHPDYRQDESYNFEGDIALLELENSVTLGPNLLPICLPDNDTFYDLGLMGYVSGFGVMEEKIAHDLRFVRLPVANPQACENWLRGKNRMDVFSQNMFCAGHPSLKQDACQGDAGGVFAVRDPNTDRWVATGIVSWGIGCSRGYGFYTKVLNYVDWIKKEMEEED
chain 2: EPTMYGEILSPNYPQAYPSEVEKSWDIEVPEGYGIHLYFTHLDIELSENCAYDSVQIISGDTEEGRLCGQRSSNNPHSPIVEEFQVPYNKLQVIFKSDFSNEERFTGFAAYYVATDINECTDFVDVPCSHFCNNFIGGYFCSCPPEYFLHDDMKNCGVNCSGDVFTALIGEIASPNYPKPYPENSRCEYQIRLEKGFQVVVTLRREDFDVEAADSAGNCLDSLVFVAGDRQFGPYCGHGFPGPLNIETKSNALDIIFQTDLTGQKKGWKLRYHGDPMPCPKEDTPNSVWEPAKAKYVFRDVVQITCLDGFEVVEGRVGATSFYSTCQSNGKWSNSKLKCQPVDCGIPESIENGKVEDPESTLFGSVIRYTCEEPYYYMENGGGGEYHCAGNGSWVNEVLGPELPKCVPVCGVPREPFEEKQRIIGGSDADIKNFPWQVFFDNPWAGGALINEYWVLTAAHVVEGNREPTMYVGSTSVQTSRLAKSKMLTPEHVFIHPGWKLLEVPEGRTNFDNDIALVRLKDPVKMGPTVSPICLPGTSSDYNLMDGDLGLISGWGRTEKRDRAVRLKAARLPVAPLRKCKEVKVEKPTADAEAYVFTPNMICAGGEKGMDSCKGDSGGAFAVQDPNDKTKFYAAGLVSWGPQCGTYGLYTRVKNYVDWIMKTMQENSTPRED
notes: Complement C1r protease; Complement C1s protease; also called C1r2s2 proteases tetramer; source: recombinant, purified according to published procedures [42]; copies: 2 + 2

Legend:
Settings in all cases: both partners purified
serum-derived C1q [1] = biological target: T1, serum-derived C1q (human, UniProt P02745 23-245); P02746 28-253; P02747 29-245, hydroxyprolines in the collagen-like region (shown as O in Figure 8A) | hydroxyprolines in the collagen-like region (shown as O in Figure 8A) | hydroxyprolines in the collagen-like region (shown as O …); assay: SPR; LAIR-1 Ig-like domain injected at increasing concentrations (4-128, 4-256 or 3.125-400 µM) over immobilized C1q, rC1q variants, C1qCLR_nc2 variants or C1qstem_nc2 (CM5, amine coupling); 25 °C; 50 mM Tris, 150 mM NaCl, 2 mM CaCl2, 0.05% surfactant P20, pH 7.5; KD from Req versus concentration, steady-state model
T1 construct: Complement C1q, A chain; Complement C1q, B chain; Complement C1q, C chain; 18 polypeptide chains, six A-B-C heterotrimers, 460 kDa; also called sC1q; source: purified from human serum; copies: 6 + 6 + 6
T1 sequence (P02745 23-245, chain 1 of 3): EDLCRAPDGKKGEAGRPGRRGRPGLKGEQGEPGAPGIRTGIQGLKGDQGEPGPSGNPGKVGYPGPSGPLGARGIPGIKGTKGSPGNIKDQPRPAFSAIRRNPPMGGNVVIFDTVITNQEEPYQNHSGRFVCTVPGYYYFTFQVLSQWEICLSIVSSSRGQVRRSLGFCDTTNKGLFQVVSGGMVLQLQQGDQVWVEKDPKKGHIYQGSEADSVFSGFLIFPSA
T1 sequence (P02746 28-253, chain 2 of 3): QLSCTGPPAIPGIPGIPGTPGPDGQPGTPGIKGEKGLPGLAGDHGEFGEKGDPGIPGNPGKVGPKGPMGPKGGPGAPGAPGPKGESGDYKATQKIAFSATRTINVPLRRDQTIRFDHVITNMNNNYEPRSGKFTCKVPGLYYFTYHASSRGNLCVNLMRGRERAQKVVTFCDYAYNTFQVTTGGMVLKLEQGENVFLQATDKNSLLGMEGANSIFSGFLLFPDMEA
T1 sequence (P02747 29-245, chain 3 of 3): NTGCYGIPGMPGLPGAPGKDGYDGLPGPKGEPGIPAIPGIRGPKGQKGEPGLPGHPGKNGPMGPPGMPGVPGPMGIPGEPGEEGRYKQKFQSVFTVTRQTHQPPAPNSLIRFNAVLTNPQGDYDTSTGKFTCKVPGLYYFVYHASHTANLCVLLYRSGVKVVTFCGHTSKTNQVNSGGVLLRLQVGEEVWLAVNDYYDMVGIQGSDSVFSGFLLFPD

[2] = biological target: T2, recombinant wild-type C1q (UniProt P02745 23-245; P02746 28-253; P02747 29-245); assay: as above
T2 construct: Complement C1q, A chain; Complement C1q, B chain; Complement C1q, C chain; also called rC1q WT; source: recombinant, produced and purified as reported in Bally et al. [20]; copies: + +
T2 sequence (P02745 23-245, chain 1 of 3): as the sequence (P02745 23-245, chain 1 of 3) above
T2 sequence (P02746 28-253, chain 2 of 3): as the sequence (P02746 28-253, chain 2 of 3) above
T2 sequence (P02747 29-245, chain 3 of 3): as the sequence (P02747 29-245, chain 3 of 3) above

[3] = biological target: T3, recombinant C1q mutant with an alanine substitution of LysA59, LysB61 and LysC58 (UniProt P02745 23-245; P02746 28-253; P02747 29-245, alanine substitution of LysA59 | alanine substitution of LysB61 | alanine …); assay: as above
T3 construct: Complement C1q, A chain; Complement C1q, B chain; Complement C1q, C chain; also called rC1q ABC; source: recombinant, produced and purified as reported in Bally et al. [20]; copies: + +
T3 sequence (P02745 other isoform, or with tags, fused parts or gaps with the stated changes, chain 1 of 3): as the sequence (P02745 23-245, chain 1 of 3) above, with K59A counted along it
T3 sequence (P02746 other isoform, or with tags, fused parts or gaps with the stated changes, chain 2 of 3): as the sequence (P02746 28-253, chain 2 of 3) above, with K61A counted along it
T3 sequence (P02747 other isoform, or with tags, fused parts or gaps with the stated changes, chain 3 of 3): as the sequence (P02747 29-245, chain 3 of 3) above, with K58A counted along it

serum-derived C1q [4] = biological target: T1, serum-derived C1q; assay: SPR; LAIR-1 Ig-like domain (WT or mutant) injected at 10 µM over C1q or C1q fragment amine-coupled to a CM5 chip (sC1q 14,000 RU, sCLR 6000 RU, sGR 1500 RU); 25 °C; 50 mM Tris, 150 mM NaCl, 2 mM CaCl2, 0.05% surfactant P20, pH 7.5; association 180 s; mutants as percentage of the WT response at equilibrium
serum-derived C1q [5] = biological target: T1, serum-derived C1q; assay: SPR; sC1q (1 nM), alone or preincubated with C1r2s2 at increasing molar ratios (1-5; 15 min at 25 °C), injected over immobilized LAIR-1 Ig-like domain (330 RU); 50 mM Tris, 150 mM NaCl, 2 mM CaCl2, 0.05% surfactant P20, pH 7.5; 25 °C; avidity effects

| Binder | binding result (serum-derived C1q [4]) | further results |
| --- | --- | --- |
| B1 |  | Kd (serum-derived C1q [1]): 112 µM; Kd [2]: 99.5 µM; Kd [3]: 132 µM |
| B2 | binds |  |
| B3 | binds |  |
| B4 | binds |  |
| B5 | binds |  |
| B6 |  | binding result (serum-derived C1q [5]): binds |

From PMC8151509 (International Journal of Molecular Sciences, 2021)
